Experimental data: article PMC12439037 (RSC Chemical Biology, 2025)
Changes are numbered by the printed parent chain. Ends that are not written are not given here. * marks the point of attachment. Myristoyl = CCCCCCCCCCCCCC(=O)*

Experiments:
Assay in all cases: crystal structure
[1] = target: T1, SIRT2^F96A (human SIRT2 residues 50–356, F96A) (human, UniProt Q8IXJ6 50-356, F96A)
T1 sequence (looked up): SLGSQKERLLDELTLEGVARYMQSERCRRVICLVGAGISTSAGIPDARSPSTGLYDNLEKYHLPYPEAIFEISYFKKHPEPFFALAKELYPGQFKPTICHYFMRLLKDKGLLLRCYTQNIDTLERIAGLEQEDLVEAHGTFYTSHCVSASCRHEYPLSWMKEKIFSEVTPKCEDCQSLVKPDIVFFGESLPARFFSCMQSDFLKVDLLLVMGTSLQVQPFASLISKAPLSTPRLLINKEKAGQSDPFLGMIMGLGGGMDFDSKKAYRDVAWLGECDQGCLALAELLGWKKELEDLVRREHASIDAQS

[2] = target: T2, human SIRT2 (residues 50–356) (human, UniProt Q8IXJ6 50-356)
T2 sequence (looked up): T1 sequence (looked up) with A47F

[3] = target: T3, SIRT2^H187A (human SIRT2 residues 50–356, H187A) (human, UniProt Q8IXJ6 50-356, H187A)
T3 sequence (looked up): T1 sequence (looked up) with A47F, H138A

- binding result [1]: binds
- binding result [2]: binds
- binding result [3]: binds
B1: H3K18myr peptide (APRKmyrQLA) (peptide)
peptide: APRK(Myristoyl)QLA
